Laboratory results reported in FireProtDB (doi:10.1021/bi060907v).

Conditions: Thermococcus kodakarensis (strain ATCC BAA-918 / JCM 12380 / KOD1), pH 9, reversible: Yes, whole UniProt chain shown
[1] = 50 °C, GdnHCl, CD, Tris-HCl 20 mM

B1: Ribonuclease HII wild type, O74035 (protein)
chain: MKIAGIDEAGRGPVIGPMVIAAVVVDENSLPKLEELKVRDSKKLTPKRREKLFNEILGVLDDYVILELPPDVIGSREGTLNEFEVENFAKALNSLKVKPDVIYADAADVDEERFARELGERLNFEAEVVAKHKADDIFPVVSAASILAKVTRDRAVEKLKEEYGEIGSGYPSDPRTRAFLENYYREHGEFPPIVRKGWKTLKKIAEKVESEKKAEERQATLDRYFRKV
- denaturant m value [1]: 5.64 kcal/mol/M
- denaturant midpoint (higher = more stable) [1]: 1.85 M
- Tm (Thermal, DSC, Gly-NaOH 20 mM): 85.2 °C
- unfolding enthalpy (calorimetric) (Thermal, DSC, Gly-NaOH 20 mM): 137 kcal/mol
- unfolding enthalpy (van 't Hoff) (Thermal, DSC, Gly-NaOH 20 mM): 163 kcal/mol
